One series concerns the target T1, MIPS-160 (Oreochromis mossambicus, UniProt Q1KN76).
T1 construct: full-length CDS from seawater-acclimated gill cDNA, pET24a, 6xHis tag kept (C-terminal in Results, amino-terminal in Methods), E. coli Rosetta 2(DE3)pLysS, 61 kDa
T1 sequence (Q1KN76 1-518): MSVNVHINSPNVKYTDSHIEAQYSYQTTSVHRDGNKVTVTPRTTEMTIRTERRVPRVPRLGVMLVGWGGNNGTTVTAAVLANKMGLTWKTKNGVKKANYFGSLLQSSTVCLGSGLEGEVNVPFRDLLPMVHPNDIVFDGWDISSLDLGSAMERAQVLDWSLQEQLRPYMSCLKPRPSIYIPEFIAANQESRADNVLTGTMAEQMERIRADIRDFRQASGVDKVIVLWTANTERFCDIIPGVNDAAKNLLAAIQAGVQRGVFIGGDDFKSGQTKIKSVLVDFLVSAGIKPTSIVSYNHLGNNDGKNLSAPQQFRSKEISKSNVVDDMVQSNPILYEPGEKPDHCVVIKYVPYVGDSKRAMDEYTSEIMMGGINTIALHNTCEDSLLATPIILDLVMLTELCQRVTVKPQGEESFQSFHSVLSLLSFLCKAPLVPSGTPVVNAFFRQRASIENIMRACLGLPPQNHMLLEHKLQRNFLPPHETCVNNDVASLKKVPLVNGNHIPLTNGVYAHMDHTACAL
The experiment in a line: activity with or without NAD+. It counts as biochemical. The settings on record: G6P as substrate; 28°C.

Substrate in series [1]: O=P(O)(O)O[C@@H]1[C@@H](O)[C@H](O)[C@@H](O)[C@H](O)[C@@H]1O
The experiment in a line: Pi release, BioMol Green, Michaelis-Menten fit. It counts as biochemical, Oreochromis mossambicus. The following applies: 50 mM Tris-HCl pH 8.2, 50 mM NaCl, 1 mM MgCl2, 28°C, standard buffer IAB, 220 mOsm. From the text: (§1) Pi release, BioMol Green, Michaelis-Menten fit on IMPase 1

Substrate in series [2]: O=P(O)(O)O[C@@H]1[C@H](O)[C@H](O)[C@@H](O)[C@H](O)[C@H]1O
Nature of the series: Pi release, BioMol Green, Michaelis-Menten fit. It counts as biochemical, Oreochromis mossambicus. The following applies: 50 mM Tris-HCl pH 8.2, 50 mM NaCl, 1 mM MgCl2, 28°C, standard buffer IAB, 220 mOsm.
From the text: as §1

`NC(=O)c1ccc[n+]([C@@H]2O[C@H](COP(=O)(O)OP(=O)(O)OC[C@H]3O[C@@H](n4cnc5c(N)ncnc54)[C@H](O)[C@@H]3O)[C@@H](O)[C@H]2O)c1` [NAD^+]: on MIPS-160, the “activity with or without NAD+” value is “MIPS-160 activity depends on NAD^+ (Fig 5B)”.

B1: IMPase 1 (Oreochromis mossambicus) (protein)
chain: MEDPWQKAYDFAVAVARKAGAEIRKAGESEIRVMTKSSTVDLVTKTDERVEKIIIGSLKEEFGEGTHCFIGEESVAKGEPCILTDKPTWIIDPVDGTTNFVHGFPFVAVSIAFAVNKELEFGVVYSCLEDKMYKARKGKGAFCDNEPIAVSDVKDINRSIIIFEHGTDRSPEKVTKIFFTMQKILCIPVHGLRGSGTAGYKQCLVVIGGSEGVFDIGIHCWDIAAGADIVKEAGGILLDVDGGPFDLMSRRMVSANNETIAKRIIKEIEIFPVVRDDAPIEKK
notes: full-length CDS from seawater-acclimated gill cDNA, pET24a, 6xHis tag kept (C-terminal in Results, amino-terminal in Methods), E. coli Rosetta 2(DE3)pLysS, 32 kDa
As for B1, in series [1], the Km stood at 930 ± 350 µM, the Vmax came to 0.0027 ± 0.0006 nmol/s, the kcat amounted to 0.962 ± 0.102 s⁻¹ and the kcat/Km is 1050 ± 200 M⁻¹ s⁻¹. For the same molecule, in series [2], the Km was 538 ± 74 µM, the Vmax is 0.0073 ± 0.0007 nmol/s, the kcat came to 2.585 ± 0.112 s⁻¹ and the kcat/Km is 4800 ± 1100 M⁻¹ s⁻¹.

Values taken from paper PMC4466255, “Direct Ionic Regulation of the Activity of Myo-Inositol Biosynthesis Enzymes in Mozambique Tilapia” (PLoS ONE, 2015).
